Assay results: US10544421 (NEW YORK STRUCTURAL BIOLOGY CENTER, dated 2020)

Target: T1, recombinant human acetylcholinesterase (rhAChE), cleaved protein from codon 33 to codon 574 (human, UniProt P22303 33-574)
T1 construct: range 33-574; Expressed in HEK 293-H cells, secreted, tag removed with his-TEV protease; also called purified rhAChE; human AChE
Assay: co-crystal of rhAChE complexed with fasciculin-2, X-ray crystallography (PDB 4EY8)
Description: A crystallization buffer 44 is provided. The preferred crystallization buffer 44 contains 15-21% polyethylene glycol (PEG) 3350 and 0.17-0.21M potassium nitrate. Crystals of rhAChE are grown by sitting drop vapor diffusion at 22° C. against the crystallization buffer 44. See Block 46. Clustered hexagonal rod-shaped crystals (20×20×600 µm) are typically nucleated within 5 days and grow to full size within 3 days. Once the crystals are full size, they are harvested and flash frozen using liquid nitrogen. See Block 48. The harvested crystals 10 can then be cut and subjected to X-ray crystallography and modeling in the traditional manner. See Block 50. Since the rhAChE crystals 10 are not complexed, the X-ray crystallography produces models that more accurately represent AChE in the human brain. Additionally, the active sites that are obfuscated by snake venom in the prior art are open and active.
Referring to FIG. 4 in conjunction with FIG. 1, it will be understood that in order to complex the rhAChE crystals 10, a small volume of the complexing ligand 52 is added to the crystallization buffer 44 to create a modified crystallization buffer 54. Crystals of complexed rhAChE are grown by sitting drop vapor diffusion against the modified crystallization buffer 54. The crystals are then grown, harvested and imaged in the manner previously described.

B1: fasciculin-2 (other)
chain: TMCYSHTTTSRAILTNCGENSCYRKSRRHPPKMVLGRGCGCPPGDDNLEVKCCTSPDKCNY
notes: Used as the complexing ligand in rhAChE crystals; also called snake venom fasciculin-2
B1: binds.
